Four molecules from patent publication US12129490B2, “Methods for generating hepatocytes and cholangiocytes from pluripotent stem cells” (UNIVERSITY HEALTH NETWORK, priority 2018, dated 2024) can be followed below.

For experiment [1], the system named is hPSC-derived hepatoblast aggregates. Nature of the experiment: Growth factor addition to hepatoblast aggregates co-cultured on OP9 stroma. The experiment is classed as cell-based, human. As to conditions: for cholangiocyte branching: hepatoblasts co-cultured with OP9. The source says: To investigate the effect of Notch signaling on cholangiocyte development, we co-cultured the hepatoblast population (day 25) with OP9 stromal cells that are known to express different Notch ligands including Jagged-1^4,5. […] To overcome this problem, we generated 3D aggregates from the day 25 monolayer cells and cultured them on the OP9 stromal cells.

The subject of experiment [2] is hESC-derived embryoid bodies. The experiment is described as follows: Endoderm induction in hESC-derived embryoid bodies, flow cytometry. Format: cell-based, human. The conditions noted are these: day six EBs. Here is the method: Similar to protocols using monolayer cultures^16, it involves specific steps that recapitulate the critical stages of liver development in the early embryo. EBs are formed from small aggregates by culture for 24 hours in low levels of BMP4, as previously described^18. The EBs are subsequently exposed to high concentrations of activin A (hereafter referred to as activin) for five days to induce definitive endoderm, a population defined by expression of the surface markers CXCR4, CKIT and EPCAM and the transcription factors SOX17 and FOXA2.
Addition of Wnt3A to the activin-induced EB cultures led to reproducible increases in the proportion of CXCR4^+, SOX17^+ and FOXA2^+ cells within the EBs (FIG. 1c). With the increase in CXCR4 expression, the proportion of CKIT^+CXCR4^+ and CXCR4^+EPCAM^+ cells increased to greater than 95% of the population. […] Endoderm induction in the EBs was influenced by the base culture media used. StemPro34 supported more efficient endoderm induction than neural basal media that we used previously (FIG. 1f). The induction of highly enriched endoderm is an important first step in the efficient and reproducible generation of hepatocyte-like cells from hPSCs.
Media was changed every 3 days.
Flow cytometric analyses were performed as described previously^45. […] Stained cells were analyzed using an LSRII flow cytometer (BD).
For orientation: Flow cytometry measures light scatter and fluorescence of single cells or particles in a stream.

B1: TGFβ2: TGFbeta family member (protein, UniProt P61812 303-414, looked up)
Transforming growth factor …: ALDAAYCFRNVQDNCCLRPLYIDFKRDLGWKWIHEPKGYNANFCAGACPYLWSSDTQHSRVLSLYNTINPEASASPCCVSQDLEPLTILYYIGKTPKIEQLSNMIVKSCKCS
modifications: Transforming growth factor beta-2
notes: TGFbeta family member
B1: the cholangiocyte branching entry in experiment [1] is “promote branching structures”.

B2: EGF: Epidermal Growth factor (protein, UniProt P01133 23-1207, looked up)
Pro-epidermal growth factor: PQHWSCPEGTLAGNGNSTCVGPAPFLIFSHGNSIFRIDTEGTNYEQLVVDAGVSVIMDFHYNEKRIYWVDLERQLLQRVFLNGSRQERVCNIEKNVSGMAINWINEEVIWSNQQEGIITVTDMKGNNSHILLSALKYPANVAVDPVERFIFWSSEVAGSLYRADLDGVGVKALLETSEKITAVSLDVLDKRLFWIQYNREGSNSLICSCDYDGGSVHISKHPTQHNLFAMSLFGDRIFYSTWKMKTIWIANKHTGKDMVRINLHSSFVPLGELKVVHPLAQPKAEDDTWEPEQKLCKLRKGNCSSTVCGQDLQSHLCMCAEGYALSRDRKYCEDVNECAFWNHGCTLGCKNTPGSYYCTCPVGFVLLPDGKRCHQLVSCPRNVSECSHDCVLTSEGPLCFCPEGSVLERDGKTCSGCSSPDNGGCSQLCVPLSPVSWECDCFPGYDLQLDEKSCAASGPQPFLLFANSQDIRHMHFDGTDYGTLLSQQMGMVYALDHDPVENKIYFAHTALKWIERANMDGSQRERLIEEGVDVPEGLAVDWIGRRFYWTDRGKSLIGRSDLNGKRSKIITKENISQPRGIAVHPMAKRLFWTDTGINPRIESSSLQGLGRLVIASSDLIWPSGITIDFLTDKLYWCDAKQSVIEMANLDGSKRRRLTQNDVGHPFAVAVFEDYVWFSDWAMPSVMRVNKRTGKDRVRLQGSMLKPSSLVVVHPLAKPGADPCLYQNGGCEHICKKRLGTAWCSCREGFMKASDGKTCLALDGHQLLAGGEVDLKNQVTPLDILSKTRVSEDNITESQHMLVAEIMVSDQDDCAPVGCSMYARCISEGEDATCQCLKGFAGDGKLCSDIDECEMGVPVCPPASSKCINTEGGYVCRCSEGYQGDGIHCLDIDECQLGEHSCGENASCTNTEGGYTCMCAGRLSEPGLICPDSTPPPHLREDDHHYSVRNSDSECPLSHDGYCLHDGVCMYIEALDKYACNCVVGYIGERCQYRDLKWWELRHAGHGQQQKVIVVAVCVVVLVMLLLLSLWGAHYYRTQKLLSKNPKNPYEESSRDVRSRRPADTEDGMSSCPQPWFVVIKEHQDLKNGGQPVAGEDGQAADGSMQPTSWRQEPQLCGMGTEQGCWIPVSSDKGSCPQVMERSFHMPSYGTQTLEGGVEKPHSLLSANPLWQQRALDPPHQMELTQ
modifications: Pro-epidermal growth factor
Turning to B2, the “development of CK19+ clusters” value in experiment [1] (OP9 co-culture) was “increase in the size”.

B3: Wnt3A: wingless-type MMTV integration site family, member 3A factor, added to activin-induced EB cultures (protein, UniProt P56704 19-352, looked up)
Protein Wnt-3a: SYPIWWSLAVGPQYSSLGSQPILCASIPGLVPKQLRFCRNYVEIMPSVAEGIKIGIQECQHQFRGRRWNCTTVHDSLAIFGPVLDKATRESAFVHAIASAGVAFAVTRSCAEGTAAICGCSSRHQGSPGKGWKWGGCSEDIEFGGMVSREFADARENRPDARSAMNRHNNEAGRQAIASHMHLKCKCHGLSGSCEVKTCWWSQPDFRAIGDFLKDKYDSASEMVVEKHRESRGWVETLRPRYTYFKVPTERDLVYYEASPNFCEPNPETGSFGTRDRTCNVSSHGIDGCDLLCCGRGHNARAERRREKCRCVFHWCCYVSCQECTRVYDVHTCK
Consider B3, for which the “proportion co-expressing CXCR4 and CKIT or CXCR4 and EPCAM” value in experiment [2] is reported as “greater than 95%”.

B4: TGFβ3: TGFbeta family member (protein, UniProt P10600 301-412, looked up)
Transforming growth factor …: ALDTNYCFRNLEENCCVRPLYIDFRQDLGWKWVHEPKGYYANFCSGPCPYLRSADTTHSTVLGLYNTLNPEASASPCCVPQDLEPLTILYYVGRTPKVEQLSNMVVKSCKCS
modifications: Transforming growth factor beta-3
notes: TGFbeta family member
With B4, the cholangiocyte branching result in experiment [1] is “promote branching structures”.
